Measured values: the supplement of paper PMC10567573
± gives the standard deviation.

Test: protein stability index of a GFP-peptide fusion (GPS, HEK-293T) (PSI 1-6); higher = more stable
Conditions: c terminus: a fixed tail appended
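Also: 24-mer peptide tiles fused after GFP, lentivirally expressed, FACS-sorted into six equal bins by GFP/DsRed ratio, decoded by Illumina sequencing, PSI is the read-weighted mean bin number.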

Sequence	protein stability index (treatment: DMSO)	protein stability index (treatment: MLN4924 1 uM, 8 h)
LLRPPVAAFVRAQADLLAHLVPEP [DNAAF3]	2.23 ± 0.31	2.33 ± 0.31
LMDYIGINLATMNSCINPIALYFV [EDNRA]		3.08 ± 0.24
LMIIVCIDQWKNKIWPEIKVPRPD [RETREG3]	2.81 ± 0.43	2.82 ± 0.45
LMVHGNERFIQYLASRNTLFNLSN [SNAP91]	2.67 ± 0.54	2.3 ± 0.7
LNWKMTLCLLVAWSIVGMAVVKGI [SLC6A17]	2.61 ± 0.67	2.45 ± 0.48
LPDLCLCRVFWWLGDRDRSRAALV [FBXO39]	2.5 ± 0.51	2.76 ± 0.7
LPETLNSPLLETFSDLQVYSYRRL [SLC22A15]	2.4 ± 0.1	2.81 ± 0.27
LPHGVNFQDAIFPDTQENRRMFSS [CCDC3]	3.91 ± 0.18	3.92 ± 0.097
LPLALVTWVPMFLSTLLAPYQALR [SOAT2]	2.93 ± 0.6	2.95 ± 0.35
LPPKVGSFQLFVEGYKDADYWLRR [PI4K2A]	2.41 ± 0.34	2.46 ± 0.17
LPSNLLKKFRSSTSSSLGDKSEYL [KCNA4]	3.11 ± 0.084	3.23 ± 0.37
LPSVPVSVPASDPRSCSSGPAGPY [PLEKHN1]	4.35 ± 0.21	4.39 ± 0.17
LPTDAVDCMSRELVSLTSRNPDQR [FBXO34]	4.85 ± 0.25	4.9 ± 0.17
LQCRSPPRLHGAKAILDAEPGPRP [TBC1D10A]	4.46 ± 0.12	4.48 ± 0.12
LQDLALQGAKERAHQQKKHSGFED [CHGA]	4.92 ± 0.29	5.06 ± 0.22
LQGLIPGARYEVTVVSVRGFEESE [TNXB]	2.19 ± 0.34	2.44 ± 0.78
LQHVSEPQAHQESTRGAARPAQAI [SPACA9]	4.96 ± 0.19	5.04 ± 0.098
LQILAYGNQESKLIILASGGPQAL [CTNNB1]	2.89 ± 1.4	2.22 ± 1.1
LQRQAEQNPTASYYNVVLLRYQFS [FCHO1]	2.23 ± 0.4	2.28 ± 0.34
LRDDVLCARMLYNYGADTNTRNYE [ASB7]	3.1 ± 0.21	2.86 ± 0.14
LREIPETTPIEEVKGLFKSENCPK [LARP4]	5.06 ± 0.19	5.1 ± 0.33
LRELCRLWLRPETHTKEQILELVV [ZNF24]	2.44 ± 0.21	2.11 ± 0.34
LRLLQHTPSARRNYRIAGARLMRS [C6orf223]	2.99 ± 0.22	3.08 ± 0.32

Sequence	protein stability index (treatment: DMSO)	protein stability index (treatment: MLN4924 1 uM, 8 h)
LRRESTSQKEMDKAETKTKKAAES [FCHO1]	5.45 ± 0.28	5.46 ± 0.13
LRRKTPRHKQPTLLMVRASRRSGK [C6orf223]	3.61 ± 0.13	4.04 ± 0.22
LSGVEEELQRTKQEVLSLRRENST [SASS6]	5.07 ± 0.22	5 ± 0.21
LSLPARNQAGYFMLPTVITDIKDE [ALDH8A1]	3.81 ± 0.39	3.88 ± 0.27
LSNLVQHILKKYYGNGMRKSPEMP [RTP4]	2.43 ± 0.35	2.28 ± 0.11
LSQPQQGEAMLANFKPRGYSECIV [GAN]	3.13 ± 0.21	3.02 ± 0.37
LSSDRVANSSSEAPFPNVSTSLLT [ADAMTSL2]	4.17 ± 0.21	4.14 ± 0.29
LSSNREAHQHRDKMQQSKNQVVSS [CSNK1G3]	4.72 ± 0.21	4.81 ± 0.37
LTELVQRRITYLQNPKDCSKAKKL [FUT8]	3.99 ± 0.35	4.08 ± 0.24
LTLQVLVAGNPQDTRLRYSFFVPR [ADAMTS4]	3.13 ± 0.4	3.19 ± 0.44
LVAKELGQTGTRLTPADKAEHMKR [AUP1]	4.41 ± 0.4	4.29 ± 0.21
LVVDYIDEGRLVLEFSLLSYAFGK [SOAT1]	3.29 ± 0.8	3.17 ± 0.48
LWKRMDKLEAEKRILQEKLDQPVS [CCDC6]	3.81 ± 0.2	3.94 ± 0.35
LYPAVSAVWGQCQVRIRYLGERRA [SPSB2]	2.56 ± 0.19	2.62 ± 0.38
LYQKQPKIGYHLLYYLRASKAAAG [INTS3]	2.55 ± 0.31	2.25 ± 0.33
MAAESGELIGACEFMKDRLYFATL [CDC14A]	2.53 ± 1.1	1.82 ± 0.46
MAAPEERDLTQEQTEKLLQFQDLT [FAF2]	5.13 ± 0.29	5.16 ± 0.2
MADGNEDLRADDLPGPAFESYESM [KLHDC2]	5.41 ± 0.23	5.26 ± 0.26
MAGGPPNTKAEMEMSLAEELNHGR [FATE1]	5.17 ± 0.14	5.22 ± 0.27
MEALAAETNLLLAQKQRLERALDA [TEKT4]	4.13 ± 0.4	4.13 ± 0.38
MEDKEMTGPQLPESLEDVAMYISQ [ZNF263]	4.73 ± 0.23	4.78 ± 0.2
MEHLIYGEPRKLLTQDWVQENYLE [MAGEA10]	3.41 ± 0.35	3.47 ± 0.3
